Columns and labels:
AP-Aβ = target: T1, AP-Aβ (UniProt P05187 23-511; P05067 672-699); test: AP fusion binding to COS cells expressing NgR, saturation
T1 construct: Fusion of alkaline phosphatase and Aβ(1-28); The range 1-28 is Aβ numbering; also called AP-Aβ(1-28); soluble AP-Aβ(1-28)

Fluo-Aβ42 = target: T2, Fluo-Aβ42 (UniProt P05067 672-713, 'Fluo' label (kind and position not stated)); test: Fluo-Aβ42 incubated 2 h at 4° C. with SKNMC cells expressing human NgR-1
T2 construct: also called fibrillogenic Aβ42 peptide

T1 sequence (P05187 other isoform, or with tags, fused parts or gaps): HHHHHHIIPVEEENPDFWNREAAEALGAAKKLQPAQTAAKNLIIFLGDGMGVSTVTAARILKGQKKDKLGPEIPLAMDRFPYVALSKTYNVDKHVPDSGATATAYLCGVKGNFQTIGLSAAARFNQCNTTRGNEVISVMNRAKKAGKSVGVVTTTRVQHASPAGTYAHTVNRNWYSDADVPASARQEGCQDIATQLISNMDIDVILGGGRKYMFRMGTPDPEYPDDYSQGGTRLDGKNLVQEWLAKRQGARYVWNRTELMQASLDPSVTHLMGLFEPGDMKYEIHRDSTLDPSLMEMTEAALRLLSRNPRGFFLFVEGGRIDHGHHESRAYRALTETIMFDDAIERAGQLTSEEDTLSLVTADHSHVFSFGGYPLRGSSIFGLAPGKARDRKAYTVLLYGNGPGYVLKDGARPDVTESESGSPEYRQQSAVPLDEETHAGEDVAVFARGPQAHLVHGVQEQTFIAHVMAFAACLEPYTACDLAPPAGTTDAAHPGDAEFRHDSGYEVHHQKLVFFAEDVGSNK

| Kd (AP-Aβ) [nM] | binding result (Fluo-Aβ42) | Binder |
| --- | --- | --- |
| 60 | – | NgR expressed in COS cells (receptor) CPGACVCYNEPKVTTSCPQQGLQAVPVGIPAASQRIFLHGNRISHVPAASFRACRNLTILWLHSNVLARIDAAAFTGLALLEQLDLSDNAQLRSVDPATFHGLGRLHTLHLDRCGLQELGPGLFRGLAALQYLYLQDNALQALPDDTFRDLGNLTHLFLHGNRISSVPERAFRGLHSLDRLLLHQNRVAHVHPHAFRDLGRLMTLYLFANNLSALPTEALAPLRALQYLRLNDNPWVCDCRARPLWAWLQKFRGSSSEVPCSLPQRLAGRDLKRLAANDLQGCAVATGPYHPIWTGRATDEEPLGLPKCCQPDAADKASVLEPGRPASAGNALKGRVPPGDSPPGNGSGPRHINDSPFGTLPGSAEPPLTAVRPEGSEPPGFPTSGPRRRPGCSRKNRTRSHCRLGQAGSGGGGTGDSEGS |
| – | binds | human NgR-1 expressed on human SKNMC cells (receptor, UniProt Q9BZR6 27-447, looked up, whole, on cells) CPGACVCYNEPKVTTSCPQQGLQAVPVGIPAASQRIFLHGNRISHVPAASFRACRNLTILWLHSNVLARIDAAAFTGLALLEQLDLSDNAQLRSVDPATFHGLGRLHTLHLDRCGLQELGPGLFRGLAALQYLYLQDNALQALPDDTFRDLGNLTHLFLHGNRISSVPERAFRGLHSLDRLLLHQNRVAHVHPHAFRDLGRLMTLYLFANNLSALPTEALAPLRALQYLRLNDNPWVCDCRARPLWAWLQKFRGSSSEVPCSLPQRLAGRDLKRLAANDLQGCAVATGPYHPIWTGRATDEEPLGLPKCCQPDAADKASVLEPGRPASAGNALKGRVPPGDSPPGNGSGPRHINDSPFGTLPGSAEPPLTAVRPEGSEPPGFPTSGPRRRPGCSRKNRTRSHCRLGQAGSGGGGTGDSEGS |

Source: patent US20070065429A1 (Biogen, published 2007)
